For test [1], the target named is T1, recombinant human LRP1 ligand binding cluster II (amino acids 786-1165, C-terminal Fc) (human).
T1 construct: range 786-1165; Bought from R&D Systems, NS0-expressed; also called rhLRP1 cluster II; hrLRP1 cluster II
As to the kind of experiment: solid-phase binding assay, receptor coated on plate, streptavidin-HRP detection, EDTA-subtracted. As to the method:
(§1) Solid phase binding assays were carried out as follows. Recombinant murine VLDLR ectodomain (aa 1-798, C-terminal hexahistidine, 1 μg) or rhLRP1 cluster II (aa 786-1165, C-terminal Fc, 1 μg) were bound to Nunc Maxisorp™ 96-well plates in TBS pH 8 supplemented with 5 mM CaCl₂ (TBSC) overnight at 4° C. Wells were washed with TBSC and then blocked with TBSC containing 2% BSA. Peptides were then incubated with the immobilized receptor at a range of concentrations for 2 hours in the above blocking buffer supplemented with 0.05% Tween-20 at room temperature. Identical binding reactions were done in the presence of 50 mM EDTA to provide a measure of non-specific binding. Control wells contained no added peptide. […] Excess streptavidin-HRP or primary antibody was removed and wells washed before incubation with the secondary antibody, when necessary, HRP-conjugated goat anti rabbit IgG (Bio-Rad). Color was developed using TMB reagents (BioRad). Absorption at 450 nm was measured with a microplate spectrophotometer (Molecular Devices). Absorption obtained in the presence of EDTA was subtracted from absorption obtained in the presence of calcium prior to analysis. Data were plotted and Kd values derived by non-linear regression with the assumption of single-site binding (GraphPad Prism).

Test [2] has as its target T2, recombinant mouse VLDLR ectodomain (amino acids 1-798, C-terminal hexahistidine) (mouse, UniProt P98156 28-798).
T2 construct: range 1-798; Bought from R&D Systems, NS0-expressed; The printed range starts at 1 and so may count a signal peptide; also called rmVLDLR ectodomain; mVLDLR
The test is described as above. How it is done:
as §1

The target in test [3] is T1, recombinant human LRP1 ligand binding …. As to the kind of experiment: competition ELISA, inhibition of RAP d3 (2 nM) binding to coated LRP1 cluster II-Fc. How it is done:
(§2) Solid phase binding assays were performed using recombinant human LRP1 cluster II (amino acids 786-1165, with C-terminal Fc tag, 1 μg, R&D Systems, Minneapolis, Minn.) to coat Nunc MAXISORP™ 96-well plates in TBS pH 8 supplemented with 5 mM CaCl₂ (TBSC) overnight at 4° C. Data was generated by ELISA assay. Wells were washed with TBSC and blocked with TBSC containing 2% BSA. […] Control wells contained no added inhibitor. Wells were washed with TBS supplemented with 5 mM CaCl₂ and 0.05% Tween-20. Bound ligand was detected with either anti-S-peptide-HRP conjugate (Abcam, Cambridge, Mass.), anti-α-2-macroglobulin-HRP or anti-PAI-1-HRP. Excess HRP conjugate was removed and wells washed. Color was developed using TMB reagents (BioRad, Hercules, Calif.). Absorption at 450 nm was measured with a microplate spectrophotometer (Molecular Devices, Palo Alto, Calif.).

Test [4] has the same target. As to the kind of experiment: inhibitor pre-incubated with coated LRP1 cluster II-Fc, washed, then RAP d3 added; inhibition of RAP d3 binding. How it is done: as §2
Test [5] shares this target. As to the kind of experiment: competition ELISA on coated LRP1 cluster II-Fc; competitor called the heterologous ligand (FIG. 14C; the figure legend names uPA-PAI-1). As to the method: as §2
Test [6] addresses T3, 8D6 CR12 (CR pair from FDC-8D6 antigen, CD320) (human, UniProt Q9NPF0 53-168).
T3 construct: also called FDC-8D6 antigen pair; target CR pair from FDC-8D6 antigen; not shown: N-terminal hexahistidine and S-peptide tags of pET30(+)a
In words: solid-phase assay on the coated FDC-8D6 antigen CR pair, relative binding.

The target in test [7] is T4, LRP2 CR89 (human, UniProt P98164 1025-1102).
T4 construct: domain: CR89; also called YVWR; L2 CR89; not shown: N-terminal hexahistidine and S-peptide tags of pET30(+)a
In words: solid-phase assay on coated CR protein, each ligand at 80 nM, blank-corrected absorbance. As to the method:
(§3) Samples were tested twice, in duplicate, and values combined. Means and standard deviations were then calculated. Blank values obtained from wells incubated in the absence of ligand were used to correct absorbance data.
(§4) Solid phase binding assays-Purified, refolded CR protein (1 μg) was bound to Nunc Maxisorp™ 96-well plates in TBS pH 8 supplemented with 5 mM CaCl₂ (TBSC) overnight at 4° C. Wells were washed with TBSC and then blocked with TBSC containing 2% bovine serum albumin (BSA). […] Control wells contained no added ligand. As an additional control, to determine whether the absence of calcium affected binding, 10 mM EGTA was included in the incubation medium for some samples. […] Excess primary antibody was removed and wells washed before incubation with the secondary antibody, HRP-conjugated goat anti rabbit IgG (Bio-Rad). After washing, TMB substrate solutions (Bio-Rad) were added to detect HRP. Color development was stopped with 1N HCl. Absorption at 450 nm was measured with a microplate spectrophotometer (Molecular Devices). Data were plotted and Kd values derived by non-linear regression with the assumption of single-site binding (GraphPad Prism).

In test [8] the target is T5, LRP2 CR3536 (human, UniProt P98164 3882-3963).
T5 construct: domain: CR3536; not shown: N-terminal hexahistidine and S-peptide tags of pET30(+)a
Described as above. How it is done: as §3, §4

For test [9], the target named is T6, LRP2 CR34-36 (human, UniProt P98164 3841-3963).
T6 construct: domain: CR34-36; not shown: N-terminal hexahistidine and S-peptide tags of pET30(+)a
The description is as above. As to the method: as §3, §4

Test [10] concerns the target T7, LRP2 CR2728 (human, UniProt P98164 3552-3631).
T7 construct: domain: CR2728; Its cloning is not described in the methods; not shown: N-terminal hexahistidine and S-peptide tags of pET30(+)a
T7 sequence (looked up): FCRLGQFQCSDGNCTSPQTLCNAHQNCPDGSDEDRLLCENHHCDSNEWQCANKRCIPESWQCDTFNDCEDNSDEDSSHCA
The test is described as above. As to the method: as §3, §4

Test [11] has as its target T8, LRP2 CR3031 (human, UniProt P98164 3677-3755).
T8 construct: domain: CR3031; Its cloning is not described in the methods; not shown: N-terminal hexahistidine and S-peptide tags of pET30(+)a
The description is as above. As to the method: as §3, §4

Test [12] deals with T9, MAT CR12 (human, UniProt Q9Y5Y6 452-524).
T9 construct: also called ST14 CR12; matriptase CR12
T9 sequence: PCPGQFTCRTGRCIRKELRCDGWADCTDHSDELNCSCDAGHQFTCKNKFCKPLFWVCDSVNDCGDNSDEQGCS
As to the kind of experiment: binding of truncated MatRAP1 forms to MAT CR12, relative signal under isomolar conditions. How it is done:
as §4

For test [13], the target named is T3, 8D6 CR12 (CR pair from FDC-8D6 antigen, …). In words: solid-phase binding assay, CR protein coated on plate. How it is done:
Control wells contained no added ligand. As an additional control, to determine whether the absence of calcium affected binding, 10 mM EGTA was included in the incubation medium for some samples. […] Excess primary antibody was removed and wells washed before incubation with the secondary antibody, HRP-conjugated goat anti rabbit IgG (Bio-Rad). After washing, TMB substrate solutions (Bio-Rad) were added to detect HRP. Color development was stopped with 1N HCl. Absorption at 450 nm was measured with a microplate spectrophotometer (Molecular Devices). Data were plotted and Kd values derived by non-linear regression with the assumption of single-site binding (GraphPad Prism).

T1 sequence (Q07954 786-1165): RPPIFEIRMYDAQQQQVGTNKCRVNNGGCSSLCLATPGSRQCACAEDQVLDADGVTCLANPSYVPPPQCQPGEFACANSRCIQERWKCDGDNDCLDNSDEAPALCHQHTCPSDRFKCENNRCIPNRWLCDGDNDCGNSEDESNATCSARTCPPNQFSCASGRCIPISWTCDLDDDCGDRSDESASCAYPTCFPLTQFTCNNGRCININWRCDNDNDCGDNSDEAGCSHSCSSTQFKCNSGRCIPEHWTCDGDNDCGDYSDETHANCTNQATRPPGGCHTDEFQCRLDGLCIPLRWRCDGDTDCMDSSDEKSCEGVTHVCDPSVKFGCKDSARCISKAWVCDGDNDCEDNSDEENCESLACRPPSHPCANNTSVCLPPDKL
T3 sequence (Q9NPF0 other isoform, or with tags, fused parts or gaps): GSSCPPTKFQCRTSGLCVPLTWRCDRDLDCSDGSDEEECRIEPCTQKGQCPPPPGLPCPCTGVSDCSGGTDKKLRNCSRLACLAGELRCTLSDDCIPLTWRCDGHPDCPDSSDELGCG
T2 sequence (P98156 other isoform, or with tags, fused parts or gaps limits assumed, form in doubt): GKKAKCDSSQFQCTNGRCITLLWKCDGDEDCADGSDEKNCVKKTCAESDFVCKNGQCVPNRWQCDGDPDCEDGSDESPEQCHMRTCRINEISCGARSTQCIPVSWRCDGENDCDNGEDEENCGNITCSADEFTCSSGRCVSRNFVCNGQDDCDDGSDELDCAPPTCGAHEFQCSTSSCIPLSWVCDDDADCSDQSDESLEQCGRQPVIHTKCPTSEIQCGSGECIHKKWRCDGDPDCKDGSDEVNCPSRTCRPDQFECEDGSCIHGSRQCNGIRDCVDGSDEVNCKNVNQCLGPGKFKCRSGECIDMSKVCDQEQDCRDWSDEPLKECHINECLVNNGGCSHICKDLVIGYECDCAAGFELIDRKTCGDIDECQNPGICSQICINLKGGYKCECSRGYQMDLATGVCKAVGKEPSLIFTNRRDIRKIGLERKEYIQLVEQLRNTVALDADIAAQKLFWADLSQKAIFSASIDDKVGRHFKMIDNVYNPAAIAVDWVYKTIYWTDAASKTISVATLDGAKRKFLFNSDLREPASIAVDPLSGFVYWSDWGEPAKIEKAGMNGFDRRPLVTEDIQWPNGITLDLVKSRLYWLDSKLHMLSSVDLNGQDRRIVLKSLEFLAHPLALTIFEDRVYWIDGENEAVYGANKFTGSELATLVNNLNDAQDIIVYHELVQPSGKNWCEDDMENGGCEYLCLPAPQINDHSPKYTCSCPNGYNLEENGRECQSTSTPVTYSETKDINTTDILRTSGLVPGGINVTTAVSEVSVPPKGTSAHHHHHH
T6 sequence (P98164 3841-3963): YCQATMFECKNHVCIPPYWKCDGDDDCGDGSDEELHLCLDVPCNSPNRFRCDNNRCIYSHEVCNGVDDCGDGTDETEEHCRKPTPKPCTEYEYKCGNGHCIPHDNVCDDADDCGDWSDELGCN
T5 sequence (P98164 3882-3963): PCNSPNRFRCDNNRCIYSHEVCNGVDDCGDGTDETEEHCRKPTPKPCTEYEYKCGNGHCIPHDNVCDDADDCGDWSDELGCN
T8 sequence (P98164 3677-3755): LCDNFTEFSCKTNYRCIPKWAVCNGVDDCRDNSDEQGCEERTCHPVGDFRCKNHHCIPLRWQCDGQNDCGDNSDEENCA
T4 sequence (P98164 1025-1102): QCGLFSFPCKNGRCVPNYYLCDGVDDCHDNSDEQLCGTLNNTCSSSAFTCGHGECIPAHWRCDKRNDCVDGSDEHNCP

B1: tag-free RAP d3 peptide (amino acids 201-319 of mature human RAP, C-terminal cysteine linked to biotin) (ligand)
chain: LDRLRRVSHQGYSTEAEFEEPRVIDLWDLAQSANLTDKELEAFREELKHFEAKIEKHNHYQKQLEIAHEKLRHAESVGDGERVSRSREKHALLEGRTKELGYTVKKHLQDLSGRISRARC
modifications: C-terminal cysteine linked to maleimide-PEO2-biotin
notes: Bacterially expressed, from GeneScript; lacks HNEL; also called full-length RAP d3
For the molecule B1, the Kd worked out at 8 nM in [1] and 1 nM in [2].

B2: mRAPc (peptide)
peptide: CGFREELKHFEAKIEKHNHYQKQLEIAHEKLRHAESVGDGERVSRSREKHALLEGRTKELGYTVKKHLQDLSGGC
modifications: N-terminal biotin-GGSGG; intramolecular disulfide between C241 and C315 (mature RAP numbering)
notes: Synthetic; also called mRAPc peptide; monomeric peptide
B2: the EC50 was 32 nM in test [3], 17 nM in [4] and 7 nM in test [5]. Further, the results for the equilibrium dissociation constant (Kd) in test [1] and in test [2] were 10 nM and 5 nM, respectively.

B3: 320RAP1 (full-length d3 variant) (ligand)
chain: LDRLRRVSHQGYSTEAEFEEPRVIDLWDLAQSANLTDKELEAFREELKHFEAKIESHNHYQKQLEIAHESMRHAESVGYGERMSRSREKHALLEGRTKELGYTVTMHLQDLSGRISRAR
notes: Selected by phage panning on the CR pair of FDC-8D6 antigen; not shown: N-terminal hexahistidine and S-peptide tags of pET30(+)a
As for B3, the “EC50 (read off the curve)” value in test [6] was ~7 nM.

B4: MatRAP1 d3 (ligand)
chain: LDRLRRVSHQGYSTEAEFEEPRVIDLWDLAQSANLTDKELEAFREELKHFGAKIERHNHYQKQLEIAHEWLRHAESVGDGERVSRSREKHALLEGRTKELGYTVKKHLQDLSGRISRAR
notes: Selected by phage panning on MAT CR23; also called RAP vMA; not shown: N-terminal hexahistidine and S-peptide tags of pET30(+)a
For the molecule B4, the binding result in [7], in [8], in test [9], in [10] and in [11] was “no binding (tested: 80 nM)” in each case. Moreover, the “fnctn (relative binding signal under isomolar conditions)” value in test [12] stood at 0.22.

B5: 320RAP1 truncated variant (identical truncations as MatRAP1, amino acids 243-313) (ligand)
chain: FREELKHFEAKIESHNHYQKQLEIAHESMRHAESVGYGERMSRSREKHALLEGRTKELGYTVTMHLQDLSG
notes: also called truncated form of 320RAP1; not shown: N-terminal hexahistidine and S-peptide tags of pET30(+)a
Turning to B5, the “fold improvement in affinity against the full-length variant” value in [13] is 3.5 fold.
